Series [1] has as its target T1, SpDis3L2 WT (Schizosaccharomyces pombe, UniProt O14040 1-927).
T1 sequence: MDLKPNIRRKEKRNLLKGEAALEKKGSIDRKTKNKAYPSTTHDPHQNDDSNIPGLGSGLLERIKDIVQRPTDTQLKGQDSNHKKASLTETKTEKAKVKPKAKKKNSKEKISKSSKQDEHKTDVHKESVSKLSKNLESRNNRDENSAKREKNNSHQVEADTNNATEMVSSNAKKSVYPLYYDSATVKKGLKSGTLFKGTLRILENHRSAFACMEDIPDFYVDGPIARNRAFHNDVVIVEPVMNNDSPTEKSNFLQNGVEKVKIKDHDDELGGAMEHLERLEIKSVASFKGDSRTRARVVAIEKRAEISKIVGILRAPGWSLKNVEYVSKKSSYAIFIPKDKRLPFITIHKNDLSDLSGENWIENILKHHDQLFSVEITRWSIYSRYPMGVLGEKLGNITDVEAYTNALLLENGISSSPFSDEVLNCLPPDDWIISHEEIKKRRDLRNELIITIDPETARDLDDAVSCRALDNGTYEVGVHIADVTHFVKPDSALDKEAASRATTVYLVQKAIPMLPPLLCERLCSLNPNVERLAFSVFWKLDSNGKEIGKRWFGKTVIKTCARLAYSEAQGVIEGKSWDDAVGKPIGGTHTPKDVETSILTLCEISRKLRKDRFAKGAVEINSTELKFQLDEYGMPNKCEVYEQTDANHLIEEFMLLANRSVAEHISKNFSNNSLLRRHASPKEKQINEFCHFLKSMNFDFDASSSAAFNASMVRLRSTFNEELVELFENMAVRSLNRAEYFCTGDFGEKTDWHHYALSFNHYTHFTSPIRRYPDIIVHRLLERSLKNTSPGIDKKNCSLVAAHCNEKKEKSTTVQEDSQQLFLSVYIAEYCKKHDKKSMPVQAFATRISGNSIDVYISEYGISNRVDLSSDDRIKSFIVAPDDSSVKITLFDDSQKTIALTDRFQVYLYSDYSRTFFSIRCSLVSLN
Description: EMSA. On the technique in general: In EMSA bound probe runs differently from free probe, usually more slowly.

For series [2], the target named is T2, SpDis3L2 A756R (Schizosaccharomyces pombe, UniProt O14040 1-927, A756R).
T2 sequence: T1 sequence with A756R
Description: EMSA.

The target in series [3] is T3, SpDis3L2(D461N)ΔN168 (Schizosaccharomyces pombe, UniProt O14040 168-927, D461N).
T3 sequence: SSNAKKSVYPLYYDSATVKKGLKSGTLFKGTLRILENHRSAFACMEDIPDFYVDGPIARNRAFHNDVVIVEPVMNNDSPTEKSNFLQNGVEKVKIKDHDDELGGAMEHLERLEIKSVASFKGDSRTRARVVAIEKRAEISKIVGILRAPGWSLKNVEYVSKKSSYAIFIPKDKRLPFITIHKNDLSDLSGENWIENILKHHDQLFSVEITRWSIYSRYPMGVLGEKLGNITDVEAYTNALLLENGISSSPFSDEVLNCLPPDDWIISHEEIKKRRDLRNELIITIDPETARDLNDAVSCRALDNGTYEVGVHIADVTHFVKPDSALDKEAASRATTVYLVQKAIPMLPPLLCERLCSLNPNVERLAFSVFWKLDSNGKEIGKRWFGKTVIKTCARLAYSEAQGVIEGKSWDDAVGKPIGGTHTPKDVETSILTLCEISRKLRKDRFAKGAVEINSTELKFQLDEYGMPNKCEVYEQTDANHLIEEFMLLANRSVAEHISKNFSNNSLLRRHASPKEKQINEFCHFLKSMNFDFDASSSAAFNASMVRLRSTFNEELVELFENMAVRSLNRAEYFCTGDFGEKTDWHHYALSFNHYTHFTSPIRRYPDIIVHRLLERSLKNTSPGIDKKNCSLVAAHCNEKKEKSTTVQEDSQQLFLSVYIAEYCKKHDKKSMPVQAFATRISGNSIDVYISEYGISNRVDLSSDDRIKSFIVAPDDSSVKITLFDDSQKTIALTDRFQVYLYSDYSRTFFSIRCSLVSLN
Description: X-ray crystallography.

Numbering of substitutions follows the chain as printed.

With GUUUUGUAUAGAAAUCAAUGUUUUUUUUUUUUUUUU (ssRNA) [Adh1-U16], the binding result in series [1] and in series [2] was “binds” throughout.

Regarding UUUUUUUUUUUUU (ssRNA) [U13], the binding result in series [3] is given as “binds”.

These data come from paper doi:10.1101/2025.08.01.668158.
